From the supplement of paper PMC9112550, “Optimization of the antimicrobial peptide Bac7 by deep mutational scanning” (BMC Biology, 2022)

The sequences below were run on Escherichia coli TOP10 (assay: shrunken log2 fold change of peptide-encoding DNA abundance (4.5 h post-induction vs induction); higher = less antimicrobial activity (less host growth inhibition)). Details: time post-induction: 4.5 h; library: site-saturation at positions 5, 18, 19, 20.
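Also: peptides expressed intracellularly from a pBAD plasmid library in pooled LB shake-flask culture, induced with 0.3% L-arabinose, DNA abundance read by NGS, three biological replicates, DESeq2 with apeglm shrinkage.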

Row | Sequence | shrunken log2 fold change
1 | RRIRYRPPRLPRPRPRPMPYPRP | -0.0899
2 | RRIRYRPPRLPRPRPRPGDYPRP | 0.065
3 | RRIRTRPPRLPRPRPRPHHRPRP | -0.655
4 | RRIRFRPPRLPRPRPRPLMYPRP | -0.323
5 | RRIRHRPPRLPRPRPRPCHAPRP | -0.0924
6 | RRIRGRPPRLPRPRPRPTPGPRP | 0.971
7 | RRIRDRPPRLPRPRPRPMPIPRP | 0.000679
8 | RRIRGRPPRLPRPRPRPVIHPRP | 0.0507
9 | RRIRHRPPRLPRPRPRPQPLPRP | -0.0863
10 | RRIRQRPPRLPRPRPRPFGLPRP | -0.131
11 | RRIRSRPPRLPRPRPRPVCMPRP | -0.053
12 | RRIRFRPPRLPRPRPRPFNSPRP | -0.0372
13 | RRIRHRPPRLPRPRPRPVFQPRP | -0.0932
14 | RRIRERPPRLPRPRPRPRERPRP | 0.389
15 | RRIRRRPPRLPRPRPRPVYQPRP | -0.384
16 | RRIRRRPPRLPRPRPRPQDCPRP | -0.151
17 | RRIRFRPPRLPRPRPRPQCIPRP | -0.0639
18 | RRIRYRPPRLPRPRPRPMPMPRP | -0.319
19 | RRIRCRPPRLPRPRPRPPGCPRP | 0.412
20 | RRIRFRPPRLPRPRPRPFLWPRP | -0.0874
21 | RRIRGRPPRLPRPRPRPGKWPRP | 0.566
22 | RRIRWRPPRLPRPRPRPVQPPRP | 0.0708
23 | RRIRCRPPRLPRPRPRPYMVPRP | -0.462
24 | RRIRWRPPRLPRPRPRPRSHPRP | 0.273
25 | RRIRQRPPRLPRPRPRPLPWPRP | 0.117

Row | Sequence | shrunken log2 fold change
26 | RRIRERPPRLPRPRPRPYCAPRP | -0.533
27 | RRIRKRPPRLPRPRPRPDKRPRP | -0.0063
28 | RRIRYRPPRLPRPRPRPIQVPRP | -0.0153
29 | RRIRIRPPRLPRPRPRPQGVPRP | -0.0375
30 | RRIRWRPPRLPRPRPRPDCQPRP | -0.00822
31 | RRIRERPPRLPRPRPRPKAMPRP | 0.282
32 | RRIRTRPPRLPRPRPRPQGFPRP | 0.0424
33 | RRIRKRPPRLPRPRPRPGRNPRP | -0.105
34 | RRIRDRPPRLPRPRPRPKLPPRP | 0.0818
35 | RRIRRRPPRLPRPRPRPQDIPRP | -1.16
36 | RRIRGRPPRLPRPRPRPNQQPRP | 0.0317
37 | RRIRCRPPRLPRPRPRPNMIPRP | -0.829
38 | RRIRPRPPRLPRPRPRPISVPRP | -0.171
39 | RRIRWRPPRLPRPRPRPSVTPRP | 0.145
40 | RRIRFRPPRLPRPRPRPFRCPRP | -0.227
41 | RRIRQRPPRLPRPRPRPIKCPRP | -0.00607
42 | RRIRERPPRLPRPRPRPDKSPRP | -1.19
43 | RRIRIRPPRLPRPRPRPINYPRP | -0.379
44 | RRIRQRPPRLPRPRPRPARCPRP | 0.174
45 | RRIRARPPRLPRPRPRPMMMPRP | 0.246
46 | RRIRYRPPRLPRPRPRPWCIPRP | 0.0404
47 | RRIRLRPPRLPRPRPRPYVDPRP | -0.0393
48 | RRIRIRPPRLPRPRPRPFYCPRP | -0.633
49 | RRIRARPPRLPRPRPRPICFPRP | 1.21
50 | RRIRNRPPRLPRPRPRPKLAPRP | 0.0921

Row | Sequence | shrunken log2 fold change
51 | RRIRARPPRLPRPRPRPSFVPRP | 0.0934
52 | RRIRYRPPRLPRPRPRPFESPRP | -0.0101
53 | RRIRSRPPRLPRPRPRPRKNPRP | -0.0439
54 | RRIRQRPPRLPRPRPRPEIEPRP | -0.00695
55 | RRIRVRPPRLPRPRPRPGQNPRP | -0.104
56 | RRIRYRPPRLPRPRPRPQFQPRP | -0.718
57 | RRIRTRPPRLPRPRPRPDSPPRP | -0.549
58 | RRIRNRPPRLPRPRPRPVSNPRP | -0.00917
59 | RRIRWRPPRLPRPRPRPLKMPRP | 0.234
60 | RRIRSRPPRLPRPRPRPNHMPRP | -0.236
61 | RRIRYRPPRLPRPRPRPRNQPRP | -0.32
62 | RRIRGRPPRLPRPRPRPNFTPRP | 0.298
63 | RRIRWRPPRLPRPRPRPVRSPRP | 0.239
64 | RRIRERPPRLPRPRPRPMRWPRP | 0.472
65 | RRIRWRPPRLPRPRPRPHIAPRP | 0.0545
66 | RRIRGRPPRLPRPRPRPPNSPRP | 0.301
67 | RRIRNRPPRLPRPRPRPPDHPRP | 0.0887
68 | RRIRDRPPRLPRPRPRPTRRPRP | 0.206
69 | RRIRLRPPRLPRPRPRPDHPPRP | -0.123
70 | RRIRLRPPRLPRPRPRPYNVPRP | -0.119
71 | RRIRARPPRLPRPRPRPTGAPRP | 0.906
72 | RRIRPRPPRLPRPRPRPGHGPRP | 0.296
73 | RRIRDRPPRLPRPRPRPMMKPRP | 0.157
74 | RRIRSRPPRLPRPRPRPFFTPRP | -0.00429
75 | RRIRSRPPRLPRPRPRPDNAPRP | -0.201

Row | Sequence | shrunken log2 fold change
76 | RRIRVRPPRLPRPRPRPRHEPRP | 0.193
77 | RRIRYRPPRLPRPRPRPPGFPRP | 0.184
78 | RRIRSRPPRLPRPRPRPPGFPRP | 0.467
79 | RRIRERPPRLPRPRPRPDAFPRP | -0.038
80 | RRIRKRPPRLPRPRPRPMPMPRP | 0.00883
81 | RRIRKRPPRLPRPRPRPFVFPRP | 0.277
82 | RRIRQRPPRLPRPRPRPFYNPRP | -0.739
83 | RRIRFRPPRLPRPRPRPHQNPRP | -0.182
84 | RRIRARPPRLPRPRPRPTNFPRP | -0.0105
85 | RRIRYRPPRLPRPRPRPRHKPRP | -0.208
86 | RRIRARPPRLPRPRPRPGSKPRP | 0.227
87 | RRIRARPPRLPRPRPRPMYHPRP | -0.215
88 | RRIRIRPPRLPRPRPRPEKMPRP | -0.165
89 | RRIRHRPPRLPRPRPRPWYLPRP | -0.748
90 | RRIRMRPPRLPRPRPRPCRIPRP | -0.0476
91 | RRIRQRPPRLPRPRPRPYKCPRP | -0.334
92 | RRIRNRPPRLPRPRPRPYPCPRP | -0.00822
93 | RRIRTRPPRLPRPRPRPCNFPRP | -1.39
94 | RRIRKRPPRLPRPRPRPPFSPRP | -0.227
95 | RRIRDRPPRLPRPRPRPHKMPRP | -0.293
96 | RRIRARPPRLPRPRPRPKSQPRP | 0.286
97 | RRIRRRPPRLPRPRPRPPNPPRP | 0.691
98 | RRIRHRPPRLPRPRPRPSNRPRP | -0.771
99 | RRIRCRPPRLPRPRPRPWKHPRP | -0.264
100 | RRIRVRPPRLPRPRPRPEVLPRP | 0.244

Row | Sequence | shrunken log2 fold change
101 | RRIRWRPPRLPRPRPRPEKHPRP | 0.39
102 | RRIRFRPPRLPRPRPRPWLSPRP | -0.129
103 | RRIRSRPPRLPRPRPRPWLKPRP | 0.0524
104 | RRIRLRPPRLPRPRPRPIAMPRP | -0.0743
105 | RRIRTRPPRLPRPRPRPMHSPRP | 0.02
106 | RRIRVRPPRLPRPRPRPPHEPRP | 0.42
107 | RRIRPRPPRLPRPRPRPKLCPRP | -0.0437
108 | RRIRGRPPRLPRPRPRPKIKPRP | 0.564
109 | RRIRCRPPRLPRPRPRPWYRPRP | -0.705
110 | RRIRCRPPRLPRPRPRPFMIPRP | -0.259
111 | RRIRRRPPRLPRPRPRPTKTPRP | 0.049
112 | RRIRFRPPRLPRPRPRPPHWPRP | 0.617
113 | RRIRTRPPRLPRPRPRPPIYPRP | -0.305
114 | RRIRMRPPRLPRPRPRPAWNPRP | 0.43
115 | RRIRPRPPRLPRPRPRPFMQPRP | -0.396
116 | RRIRYRPPRLPRPRPRPGMPPRP | -0.403
117 | RRIRMRPPRLPRPRPRPTHCPRP | 0.34
118 | RRIRDRPPRLPRPRPRPHRNPRP | -0.0138
119 | RRIRVRPPRLPRPRPRPTQVPRP | 0.103
120 | RRIRFRPPRLPRPRPRPETIPRP | -0.103
121 | RRIRPRPPRLPRPRPRPQPSPRP | 0.641
122 | RRIRKRPPRLPRPRPRPIQRPRP | -0.0846
123 | RRIRVRPPRLPRPRPRPSKDPRP | -0.563
124 | RRIRVRPPRLPRPRPRPTKCPRP | -0.458
125 | RRIRNRPPRLPRPRPRPYVCPRP | -0.363
